Laboratory results from JP2008532476A (dated 2008).

Molecular target: T1, recombinant mouse Tie1-Fc (mouse, UniProt Q06806 23-755)
T1 construct: extracellular domain; also called mouse Tie1-Fc antigen; mouse Tie1-Fc fusion protein; not shown: Fc
T1 sequence (looked up): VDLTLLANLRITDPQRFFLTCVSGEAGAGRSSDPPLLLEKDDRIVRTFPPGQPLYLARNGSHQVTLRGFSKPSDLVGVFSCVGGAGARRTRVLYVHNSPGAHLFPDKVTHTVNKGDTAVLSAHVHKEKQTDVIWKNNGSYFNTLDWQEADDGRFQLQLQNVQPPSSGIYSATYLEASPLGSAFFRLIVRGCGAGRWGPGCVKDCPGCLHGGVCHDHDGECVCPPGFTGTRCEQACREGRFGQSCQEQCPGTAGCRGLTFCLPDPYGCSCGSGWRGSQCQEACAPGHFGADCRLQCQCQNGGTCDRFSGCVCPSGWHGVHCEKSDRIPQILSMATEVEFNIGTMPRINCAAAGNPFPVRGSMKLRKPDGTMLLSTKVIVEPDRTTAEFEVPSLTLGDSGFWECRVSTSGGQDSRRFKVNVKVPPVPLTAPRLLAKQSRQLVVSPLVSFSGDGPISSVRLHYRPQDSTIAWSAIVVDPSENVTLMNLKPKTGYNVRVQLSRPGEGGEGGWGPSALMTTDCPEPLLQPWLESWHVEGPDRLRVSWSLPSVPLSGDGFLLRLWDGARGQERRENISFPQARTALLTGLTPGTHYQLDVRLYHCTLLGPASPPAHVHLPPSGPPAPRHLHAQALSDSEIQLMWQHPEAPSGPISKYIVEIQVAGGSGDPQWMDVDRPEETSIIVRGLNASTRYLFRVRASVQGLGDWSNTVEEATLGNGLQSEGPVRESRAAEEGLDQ
Experiment: SPR (BIAcore 3000), Fab as analyte over mouse Tie1-Fc immobilised on a sensor chip

B1: E3b Fab (germline E3 (DX-2220) Fab) (Fab, V domains shown)
VH: EVQLLESGGGLVQPGGSLRLSCAASGFTFSMYGMVWVRQAPGKGLEWVSVISPSGGNTGYADSVKGRFTISRDNSKNTLYLQMNSLRAEDTAVYYCARAPRGYSYGYYYWGQGTLVTVSS
VL: DIQMTQSPSSLSASVGDRVTITCRASQGIGHYLAWYQQKPGKVPKLLIYTASTLQSGVPSRFSGSGSGTDFTLTISSLQPEDVATYYCQQFNSYPHTFGQGTRLEIK
For B1, the Kd was about 3 nM.
